Test [1] concerns the target T1, GST-ICR1 (Arabidopsis, UniProt Q8LE98 1-344).
T1 construct: ICR1, Arabidopsis; also called glutathione S-transferase (GST)-ICR1; source: E. coli Rosetta (DE3), purified (Glutathione sepharose)
T1 sequence (looked up): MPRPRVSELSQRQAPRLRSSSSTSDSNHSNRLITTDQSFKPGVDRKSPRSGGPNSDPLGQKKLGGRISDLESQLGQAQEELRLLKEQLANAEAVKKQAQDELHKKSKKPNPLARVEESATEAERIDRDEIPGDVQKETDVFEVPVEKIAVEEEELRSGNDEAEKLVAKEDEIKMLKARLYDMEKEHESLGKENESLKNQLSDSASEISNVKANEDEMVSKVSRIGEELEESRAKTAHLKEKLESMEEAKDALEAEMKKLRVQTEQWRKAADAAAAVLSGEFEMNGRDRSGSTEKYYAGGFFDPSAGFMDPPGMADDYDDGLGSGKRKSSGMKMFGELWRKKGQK
Briefly: pull-down; GST-ICR1 (1.2 μg) or GST (0.4 μg) on Glutathione sepharose, His6-CMI1 0.5 μg; 20 mM Tris-HCl pH 7.5, 5 mM CaCl2, 0.1 mg/mL BSA, 200 mM NaCl, 1% Triton X-100, RT; wash with 1 M NaCl; blot with anti-poly-His. The settings on record: both partners purified.

In test [2] the target is T2, His6-ICR1 (Arabidopsis, UniProt Q8LE98 1-344).
T2 construct: ICR1, Arabidopsis; also called His-ICR1; source: E. coli Rosetta (DE3), purified (Ni-NTA)
T2 sequence (looked up): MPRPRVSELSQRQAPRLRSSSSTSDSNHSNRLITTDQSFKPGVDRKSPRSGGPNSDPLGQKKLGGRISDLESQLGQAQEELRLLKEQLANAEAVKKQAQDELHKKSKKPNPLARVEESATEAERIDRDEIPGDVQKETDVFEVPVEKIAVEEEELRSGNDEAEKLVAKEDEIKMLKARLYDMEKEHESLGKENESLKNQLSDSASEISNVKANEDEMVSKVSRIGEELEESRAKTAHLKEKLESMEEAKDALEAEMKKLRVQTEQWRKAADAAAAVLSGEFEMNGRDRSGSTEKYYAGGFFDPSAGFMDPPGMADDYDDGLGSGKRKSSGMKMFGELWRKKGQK
Briefly: co-IP; purified His6-CMI1 and His6-ICR1, 1 μg each, 300 μL reaction buffer (20 mM Tris-HCl pH 7.5, 5 mM CaCl2, 0.1 mg/mL BSA, 200 mM NaCl, 1% Triton X-100), RT; anti-CMI1 antibodies and Protein A beads; blot with anti-poly-His. The settings on record: both partners purified.

B1: His6-CMI1 (natural protein, Arabidopsis, UniProt O81831 1-130, looked up)
chain: MASPKSPTRPTQQNPQPNFHDFLPTMAGNLGGEGLIGELCNGFELLMDREKGVITFESLRRNAAAVLGLGDLTDEDVRCMIKEGDFDCDGALNQMEFCVLMFRLSPDLMEASRCLVTEVIEEEFGFTRRH
notes: CMI1, Arabidopsis, At4g27280; also called His-CMI1; source: E. coli Rosetta (DE3), purified (Ni-NTA)
For the molecule B1, the binding result in test [1] and in test [2] was “binds” in each case.
